Results: patent publication US20240424125A1 (Zymeworks, published 2024)

B1: v30384-MC-GGFG-AM-DXd1 (antibody, human IgG1, kappa)
heavy 1: EVQLLESGGGLVQPGGSLRLSCAVSGFSLSSYGVSWVRQAPGKGLEWIGAVNSGGSAYYADSVKGRSTISRDNSKNTVYLQMNSLRAEDTAVYYCARSGSGYPMDYLAIWGQGTLVTVSSASTKGPSVFPLAPSSKSTSGGTAALGCLVKDYFPEPVTVSWNSGALTSGVHTFPAVLQSSGLYSLSSVVTVPSSSLGTQTYICNVNHKPSNTKVDKKVEPKSCDKTHTCPPCPAPELLGGPSVFLFPPKPKDTLMISRTPEVTCVVVDVSHEDPEVKFNWYVDGVEVHNAKTKPREEQYNSTYRVVSVLTVLHQDWLNGKEYKCKVSNKALPAPIEKTISKAKGQPREPQVYVYPPSRDELTKNQVSLTCLVKGFYPSDIAVEWESNGQPENNYKTTPPVLDSDGSFALVSKLTVDKSRWQQGNVFSCSVMHEALHNHYTQKSLSLSPG
heavy 2: not shown
light: DYQMTQSPSSVSASVGDRVTITCRASQSIGDWLAWYQQKPGKAPKLLIYEASTLASGVPSRFSGSGSGTDFTLTISSVQPEDAATYYCQQGYGRSNVDNIFGGGTKVEVKRTVAAPSVFIFPPSDEQLKSGTASVVCLLNNFYPREAKVQWKVDNALQSGNSQESVTEQDSKDSTYSLSSTLTLSKADYEKHKVYACEVTHQGLSSPVTKSFNRGEC
modifications: drug-linker MC-GGFG-AM-DXd1 on the antibody at DAR 8; conjugated residues not stated
B2: v30384-MT-GGFG-Compound 140 (antibody, human IgG1, kappa)
heavy 1: EVQLLESGGGLVQPGGSLRLSCAVSGFSLSSYGVSWVRQAPGKGLEWIGAVNSGGSAYYADSVKGRSTISRDNSKNTVYLQMNSLRAEDTAVYYCARSGSGYPMDYLAIWGQGTLVTVSSASTKGPSVFPLAPSSKSTSGGTAALGCLVKDYFPEPVTVSWNSGALTSGVHTFPAVLQSSGLYSLSSVVTVPSSSLGTQTYICNVNHKPSNTKVDKKVEPKSCDKTHTCPPCPAPELLGGPSVFLFPPKPKDTLMISRTPEVTCVVVDVSHEDPEVKFNWYVDGVEVHNAKTKPREEQYNSTYRVVSVLTVLHQDWLNGKEYKCKVSNKALPAPIEKTISKAKGQPREPQVYVYPPSRDELTKNQVSLTCLVKGFYPSDIAVEWESNGQPENNYKTTPPVLDSDGSFALVSKLTVDKSRWQQGNVFSCSVMHEALHNHYTQKSLSLSPG
heavy 2: not shown
light: DYQMTQSPSSVSASVGDRVTITCRASQSIGDWLAWYQQKPGKAPKLLIYEASTLASGVPSRFSGSGSGTDFTLTISSVQPEDAATYYCQQGYGRSNVDNIFGGGTKVEVKRTVAAPSVFIFPPSDEQLKSGTASVVCLLNNFYPREAKVQWKVDNALQSGNSQESVTEQDSKDSTYSLSSTLTLSKADYEKHKVYACEVTHQGLSSPVTKSFNRGEC
modifications: drug-linker MT-GGFG-Compound 140 on the antibody at DAR 8; conjugated residues not stated
B3: v30384-MT-GGFG-Compound 141 (antibody, human IgG1, kappa)
heavy 1: EVQLLESGGGLVQPGGSLRLSCAVSGFSLSSYGVSWVRQAPGKGLEWIGAVNSGGSAYYADSVKGRSTISRDNSKNTVYLQMNSLRAEDTAVYYCARSGSGYPMDYLAIWGQGTLVTVSSASTKGPSVFPLAPSSKSTSGGTAALGCLVKDYFPEPVTVSWNSGALTSGVHTFPAVLQSSGLYSLSSVVTVPSSSLGTQTYICNVNHKPSNTKVDKKVEPKSCDKTHTCPPCPAPELLGGPSVFLFPPKPKDTLMISRTPEVTCVVVDVSHEDPEVKFNWYVDGVEVHNAKTKPREEQYNSTYRVVSVLTVLHQDWLNGKEYKCKVSNKALPAPIEKTISKAKGQPREPQVYVYPPSRDELTKNQVSLTCLVKGFYPSDIAVEWESNGQPENNYKTTPPVLDSDGSFALVSKLTVDKSRWQQGNVFSCSVMHEALHNHYTQKSLSLSPG
heavy 2: not shown
light: DYQMTQSPSSVSASVGDRVTITCRASQSIGDWLAWYQQKPGKAPKLLIYEASTLASGVPSRFSGSGSGTDFTLTISSVQPEDAATYYCQQGYGRSNVDNIFGGGTKVEVKRTVAAPSVFIFPPSDEQLKSGTASVVCLLNNFYPREAKVQWKVDNALQSGNSQESVTEQDSKDSTYSLSSTLTLSKADYEKHKVYACEVTHQGLSSPVTKSFNRGEC
modifications: drug-linker MT-GGFG-Compound 141 on the antibody at DAR 8; conjugated residues not stated
B4: v30384-MC-GGFG-Compound 140 (antibody, human IgG1, kappa)
heavy 1: EVQLLESGGGLVQPGGSLRLSCAVSGFSLSSYGVSWVRQAPGKGLEWIGAVNSGGSAYYADSVKGRSTISRDNSKNTVYLQMNSLRAEDTAVYYCARSGSGYPMDYLAIWGQGTLVTVSSASTKGPSVFPLAPSSKSTSGGTAALGCLVKDYFPEPVTVSWNSGALTSGVHTFPAVLQSSGLYSLSSVVTVPSSSLGTQTYICNVNHKPSNTKVDKKVEPKSCDKTHTCPPCPAPELLGGPSVFLFPPKPKDTLMISRTPEVTCVVVDVSHEDPEVKFNWYVDGVEVHNAKTKPREEQYNSTYRVVSVLTVLHQDWLNGKEYKCKVSNKALPAPIEKTISKAKGQPREPQVYVYPPSRDELTKNQVSLTCLVKGFYPSDIAVEWESNGQPENNYKTTPPVLDSDGSFALVSKLTVDKSRWQQGNVFSCSVMHEALHNHYTQKSLSLSPG
heavy 2: not shown
light: DYQMTQSPSSVSASVGDRVTITCRASQSIGDWLAWYQQKPGKAPKLLIYEASTLASGVPSRFSGSGSGTDFTLTISSVQPEDAATYYCQQGYGRSNVDNIFGGGTKVEVKRTVAAPSVFIFPPSDEQLKSGTASVVCLLNNFYPREAKVQWKVDNALQSGNSQESVTEQDSKDSTYSLSSTLTLSKADYEKHKVYACEVTHQGLSSPVTKSFNRGEC
modifications: drug-linker MC-GGFG-Compound 140 on the antibody at DAR 8; conjugated residues not stated
B5: v30384-MT-GGFG-AM-Compound 139 (antibody, human IgG1, kappa)
heavy 1: EVQLLESGGGLVQPGGSLRLSCAVSGFSLSSYGVSWVRQAPGKGLEWIGAVNSGGSAYYADSVKGRSTISRDNSKNTVYLQMNSLRAEDTAVYYCARSGSGYPMDYLAIWGQGTLVTVSSASTKGPSVFPLAPSSKSTSGGTAALGCLVKDYFPEPVTVSWNSGALTSGVHTFPAVLQSSGLYSLSSVVTVPSSSLGTQTYICNVNHKPSNTKVDKKVEPKSCDKTHTCPPCPAPELLGGPSVFLFPPKPKDTLMISRTPEVTCVVVDVSHEDPEVKFNWYVDGVEVHNAKTKPREEQYNSTYRVVSVLTVLHQDWLNGKEYKCKVSNKALPAPIEKTISKAKGQPREPQVYVYPPSRDELTKNQVSLTCLVKGFYPSDIAVEWESNGQPENNYKTTPPVLDSDGSFALVSKLTVDKSRWQQGNVFSCSVMHEALHNHYTQKSLSLSPG
heavy 2: not shown
light: DYQMTQSPSSVSASVGDRVTITCRASQSIGDWLAWYQQKPGKAPKLLIYEASTLASGVPSRFSGSGSGTDFTLTISSVQPEDAATYYCQQGYGRSNVDNIFGGGTKVEVKRTVAAPSVFIFPPSDEQLKSGTASVVCLLNNFYPREAKVQWKVDNALQSGNSQESVTEQDSKDSTYSLSSTLTLSKADYEKHKVYACEVTHQGLSSPVTKSFNRGEC
modifications: drug-linker MT-GGFG-AM-Compound 139 on the antibody at DAR 8; conjugated residues not stated
B6: v30384-MT-GGFG-Compound 148 (antibody, human IgG1, kappa)
heavy 1: EVQLLESGGGLVQPGGSLRLSCAVSGFSLSSYGVSWVRQAPGKGLEWIGAVNSGGSAYYADSVKGRSTISRDNSKNTVYLQMNSLRAEDTAVYYCARSGSGYPMDYLAIWGQGTLVTVSSASTKGPSVFPLAPSSKSTSGGTAALGCLVKDYFPEPVTVSWNSGALTSGVHTFPAVLQSSGLYSLSSVVTVPSSSLGTQTYICNVNHKPSNTKVDKKVEPKSCDKTHTCPPCPAPELLGGPSVFLFPPKPKDTLMISRTPEVTCVVVDVSHEDPEVKFNWYVDGVEVHNAKTKPREEQYNSTYRVVSVLTVLHQDWLNGKEYKCKVSNKALPAPIEKTISKAKGQPREPQVYVYPPSRDELTKNQVSLTCLVKGFYPSDIAVEWESNGQPENNYKTTPPVLDSDGSFALVSKLTVDKSRWQQGNVFSCSVMHEALHNHYTQKSLSLSPG
heavy 2: not shown
light: DYQMTQSPSSVSASVGDRVTITCRASQSIGDWLAWYQQKPGKAPKLLIYEASTLASGVPSRFSGSGSGTDFTLTISSVQPEDAATYYCQQGYGRSNVDNIFGGGTKVEVKRTVAAPSVFIFPPSDEQLKSGTASVVCLLNNFYPREAKVQWKVDNALQSGNSQESVTEQDSKDSTYSLSSTLTLSKADYEKHKVYACEVTHQGLSSPVTKSFNRGEC
modifications: drug-linker MT-GGFG-Compound 148 on the antibody at DAR 8; conjugated residues not stated
B7: v30384-MC-GGFG-AM-Compound 141 (antibody, human IgG1, kappa)
heavy 1: EVQLLESGGGLVQPGGSLRLSCAVSGFSLSSYGVSWVRQAPGKGLEWIGAVNSGGSAYYADSVKGRSTISRDNSKNTVYLQMNSLRAEDTAVYYCARSGSGYPMDYLAIWGQGTLVTVSSASTKGPSVFPLAPSSKSTSGGTAALGCLVKDYFPEPVTVSWNSGALTSGVHTFPAVLQSSGLYSLSSVVTVPSSSLGTQTYICNVNHKPSNTKVDKKVEPKSCDKTHTCPPCPAPELLGGPSVFLFPPKPKDTLMISRTPEVTCVVVDVSHEDPEVKFNWYVDGVEVHNAKTKPREEQYNSTYRVVSVLTVLHQDWLNGKEYKCKVSNKALPAPIEKTISKAKGQPREPQVYVYPPSRDELTKNQVSLTCLVKGFYPSDIAVEWESNGQPENNYKTTPPVLDSDGSFALVSKLTVDKSRWQQGNVFSCSVMHEALHNHYTQKSLSLSPG
heavy 2: not shown
light: DYQMTQSPSSVSASVGDRVTITCRASQSIGDWLAWYQQKPGKAPKLLIYEASTLASGVPSRFSGSGSGTDFTLTISSVQPEDAATYYCQQGYGRSNVDNIFGGGTKVEVKRTVAAPSVFIFPPSDEQLKSGTASVVCLLNNFYPREAKVQWKVDNALQSGNSQESVTEQDSKDSTYSLSSTLTLSKADYEKHKVYACEVTHQGLSSPVTKSFNRGEC
modifications: drug-linker MC-GGFG-AM-Compound 141 on the antibody at DAR 8; conjugated residues not stated

Experiments:
[1] = target: T1, human FRα on cells (human, UniProt P15328 25-234); assay: cell-based or functional assay
T1 sequence (P15328 25-234 limits assumed): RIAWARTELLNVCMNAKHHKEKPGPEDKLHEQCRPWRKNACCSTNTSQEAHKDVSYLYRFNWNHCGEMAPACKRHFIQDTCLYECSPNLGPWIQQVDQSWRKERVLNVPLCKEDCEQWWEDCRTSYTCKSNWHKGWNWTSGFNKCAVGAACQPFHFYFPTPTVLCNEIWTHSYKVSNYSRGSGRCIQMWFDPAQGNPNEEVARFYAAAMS

[2] = target: T1, human FRα on cells; assay: cell-based or functional assay; remark: listed apart in the source

| Binder | EC50 (nM), in vitro cytotoxicity, 2D monolayer, JEG-3 cells, 4 days [1] [nM] | EC50 (nM), in vitro cytotoxicity, 2D monolayer, KB-HeLa cells, 4 days [1] [nM] | EC50 (nM), in vitro cytotoxicity, 2D monolayer, T-47D cells, 4 days [1] [nM] | 3D EC50 (nM), in vitro cytotoxicity, HEC-1-A spheroids, 6 days [2] [nM] | 3D EC50 (nM), in vitro cytotoxicity, IGROV-1 spheroids, 6 days [2] [nM] | 3D EC50 (nM), in vitro cytotoxicity, OVCAR-3 spheroids, 6 days [2] [nM] | 3D EC50 (nM), in vitro cytotoxicity, T-47D spheroids, 6 days [2] [nM] |
| --- | --- | --- | --- | --- | --- | --- | --- |
| B1 | 0.54 | 0.52 | 2.08 | 1.1 | 0.5 | 8.2 | 0.9 |
| B2 | 1.29 | 3.75 | 12.4 |  |  |  |  |
| B3 | 1.68 | 0.81 | 0.44 | 5 | 1 | 1.6 | 0.4 |
| B4 |  |  |  | 6.7 | 0.2 | 20.5 | 1.6 |
| B5 | 1.14 | 0.72 | 1.12 | 3.9 | 1 | 1.5 | 1.1 |
| B6 | 0.54 | 0.73 | 3.45 |  |  |  |  |
| B7 | 3.45 | 0.77 | 0.43 | 8.5 | 0.6 | 1.8 | 0.4 |
